The text below walks through data of article PMC4258425.

What all share (conditions): 100 mM Na2HPO4 pH 8.0, 22 °C
Substrate in data set [1]: CC#CC(=O)C(=O)O
The experiment in a line: hydratase kinetics. The data set is classed as biochemical, Bacillus subtilis.

Substrate in the data set “decarboxylase kinetics”: O=CCC(=O)O
The experiment in a line: decarboxylase kinetics. The format is biochemical, Bacillus subtilis.

Substrate in data set [2]: CC#CC(=O)C(=O)O
The experiment in a line: hydratase kinetics. The format is biochemical, Paraburkholderia phymatum.

B1: YodA (Bacillus subtilis subsp. subtilis str. 168) (protein)
chain: PLLRFDVIEGRDEKSLQLLLDTAHQAMVEAFGVPERDRYQIVHQHPANELIIQDAGLGFQRTKDMVIISMTSKARTESQKEKLYALLAERLEKKCEISPDDLMVSITENGDADWSFGLGEAQFLNGKL
The term Km denotes the substrate concentration at which the rate is half of its maximum. As usually defined, the kcat is the number of substrate molecules converted per active site and unit of time at saturation. A word on the kcat/Km: it is the turnover number divided by the Michaelis constant. On to B1, for which, in the data set “hydratase kinetics [1]”, the Km turned out to be 270 ± 40 µM, the kcat was found to be 0.03 ± 0.001 s⁻¹ and the kcat/Km is 111 M⁻¹ s⁻¹. Also, in “decarboxylase kinetics”, the Km worked out at 6.8 ± 0.94 mM, the kcat was determined as 12.2 ± 1.1 s⁻¹ and the kcat/Km is 1300 M⁻¹ s⁻¹.

B2: Bp4401 (Paraburkholderia phymatum STM815) (protein)
chain: PLTRIALRAGKPAAYRQALTEGIQRALIAEFNVPEDDIFMVISEQDESNFVYNRNYLDIQRSDDFVLIQLTVTNSRTQEQKKALYKRIVDNLAEYPGVRREDVFINLVEVLKENWSFGNGIAQYAL
In the case of B2, in “hydratase kinetics [2]”, the Km came out at 5 ± 0.35 mM, the kcat stood at 14 ± 0.1 s⁻¹ and the catalytic efficiency (kcat/Km) was 2800 M⁻¹ s⁻¹.
